# Laboratory results: patent US20200055935A1 (published 2020)
# Columns and labels:
# [1] = target: T1, human TIM-3 coupled to Fc (human, UniProt Q8TDQ0 22-200); experiment: SPR; culture supernatant
# [2] = target: T1, human TIM-3 coupled to Fc; experiment: SPR; crude periplasmic extract
Binder,koff [1],koff [2]
"anti-TIM-3 antibody clone 1H9 (antibody, V domains shown) VH: QVQLQQWGAGLLKPSETLSLTCAVYGGSFSGYYWSWIRQPPGKGLEWIGEINHSGSTNYNPSLKSRVTISVDTSKNQFSLKLSSVTAADTAVYYCARGYVAGFDDWGQGTLVTVSS VL: QSVLTQPPSVSAAPGQKVTISCSGSSSNIGNNYVSWYQQLPGTAPKLLIYGNNWRPSGIPDRFSGSKSGTSATLGITGLQTGDEADYYCDSWDSADASGVFGGGTKLTVL",0.00016 s⁻¹,7e-05 s⁻¹
"anti-TIM-3 antibody clone 2F4 (antibody, V domains shown) VH: QVQLQQWGAGLLKPSETLSLTCAVYGGSFSGYYWSWIRQPPGKGLEWIGEINHSGSTNYNPSLKSRVTISVDTSKNQFSLKLSSVTAADTAVYYCARGYVAGSDAWGQGTLVTVSS VL: QSVLTQPPSVSAAPGQKVTISCSGSSSNIGNNYVSWYQQLPGTAPKLLIYGNNWRPSGIPDRFSGSKSGTSATLGITGLQTGDEADYYCESWDYDYASGVFGGGTKLTVL",8.7e-05 s⁻¹,0.00014 s⁻¹
"anti-TIM-3 antibody clone 1D9 (antibody, V domains shown) VH: QVQLQQWGAGLLKPSETLSLTCAVYGGSFSGYYWSWIRQPPGKGLEWIGEINHSGSTNYNPSLKSRVTISVDTSKNQFSLKLSSVTAADTAVYYCARGYYAGDDYWGQGTLVTVSS VL: QSVLTQPPSVSAAPGQKVTISCSGSSSNIGNNYVSWYQQLPGTAPKLLIYGNNWRPSGIPDRFSGSKSGTSATLGITGLQTGDEADYYCEAWDSAYAAGSFGGGTKLTVL",0.00018 s⁻¹,0.00018 s⁻¹
"anti-TIM-3 antibody clone 2G6 (antibody, V domains shown) VH: QVQLQQWGAGLLKPSETLSLTCAVYGGSFSGYYWSWIRQPPGKGLEWIGEINHSGSTNYNPSLKSRVTISVDTSKNQFSLKLSSVTAADTAVYYCARGYVAGFDSWGQGTLVTVSS VL: QSVLTQPPSVSAAPGQKVTISCSGSSSNIGNNYVSWYQQLPGTAPKLLIYGNNWRPSGIPDRFSGSKSGTSATLGITGLQTGDEADYYCDSWDSSDSSGVFGGGTKLTVL",0.00013 s⁻¹,0.00022 s⁻¹
"anti-TIM-3 antibody clone 2C7 (antibody, V domains shown) VH: QVQLQQWGAGLLKPSETLSLTCAVYGGSFSGYYWSWIRQPPGKGLEWIGEINHSGSTNYNPSLKSRVTISVDTSKNQFSLKLSSVTAADTAVYYCARGYVAGYDYWGQGTLVTVSS VL: QSVLTQPPSVSAAPGQKVTISCSGSSSNIGNNYVSWYQQLPGTAPKLLIYGNNWRPSGIPDRFSGSKSGTSATLGITGLQTGDEADYYCDSWDSYLAAGVFGGGTKLTVL",0.00021 s⁻¹,0.00019 s⁻¹

# Further lines, results first:
koff [1],koff [2],Binder
4.3e-05 s⁻¹,2.8e-05 s⁻¹,"anti-TIM-3 antibody clone 1B9 (antibody, V domains shown) VH: QVQLQQWGAGLLKPSETLSLTCAVYGGSFSGYYWSWIRQPPGKGLEWIGEINHSGSTNYNPSLKSRVTISVDTSKNQFSLKLSSVTAADTAVYYCARGYVAGSDAWGQGTLVTVSS VL: QSVLTQPPSVSAAPGQKVTISCSGSSSNIGNNYVSWYQQLPGTAPKLLIYGNNWRPSGIPDRFSGSKSGTSATLGITGLQTGDEADYYCEAWDYYVAAGYFGGGTKLTVL"
2.9e-05 s⁻¹,2.3e-05 s⁻¹,"anti-TIM-3 antibody clone 1H10 (antibody, V domains shown) VH: QVQLQQWGAGLLKPSETLSLTCAVYGGSFSGYYWSWIRQPPGKGLEWIGEINHSGSTNYNPSLKSRVTISVDTSKNQFSLKLSSVTAADTAVYYCARGYVAGFDSWGQGTLVTVSS VL: QSVLTQPPSVSAAPGQKVTISCSGSSSNIGNNYVSWYQQLPGTAPKLLIYGNNWRPSGIPDRFSGSKSGTSATLGITGLQTGDEADYYCDSWDYDYAAGVFGGGTKLTVL"
0.0003 s⁻¹,0.00029 s⁻¹,"anti-TIM-3 antibody clone 1F4 (antibody, V domains shown) VH: QVQLQQWGAGLLKPSETLSLTCAVYGGSFSGYYWSWIRQPPGKGLEWIGEINHSGSTNYNPSLKSRVTISVDTSKNQFSLKLSSVTAADTAVYYCARGYVAGYDYWGQGTLVTVSS VL: QSVLTQPPSVSAAPGQKVTISCSGSSSNIGNNYVSWYQQLPGTAPKLLIYGNNWRPSGIPDRFSGSKSGTSATLGITGLQTGDEADYYCDSWDAALSAGVFGGGTKLTVL"
